T1: TBK1 (as used in Example 6; construct not named) (Homo sapiens (Human), UniProt Q9UHD2 1-729)
T1 construct: also called HA-TBK1 (constructed, probably the one used)
T1 sequence: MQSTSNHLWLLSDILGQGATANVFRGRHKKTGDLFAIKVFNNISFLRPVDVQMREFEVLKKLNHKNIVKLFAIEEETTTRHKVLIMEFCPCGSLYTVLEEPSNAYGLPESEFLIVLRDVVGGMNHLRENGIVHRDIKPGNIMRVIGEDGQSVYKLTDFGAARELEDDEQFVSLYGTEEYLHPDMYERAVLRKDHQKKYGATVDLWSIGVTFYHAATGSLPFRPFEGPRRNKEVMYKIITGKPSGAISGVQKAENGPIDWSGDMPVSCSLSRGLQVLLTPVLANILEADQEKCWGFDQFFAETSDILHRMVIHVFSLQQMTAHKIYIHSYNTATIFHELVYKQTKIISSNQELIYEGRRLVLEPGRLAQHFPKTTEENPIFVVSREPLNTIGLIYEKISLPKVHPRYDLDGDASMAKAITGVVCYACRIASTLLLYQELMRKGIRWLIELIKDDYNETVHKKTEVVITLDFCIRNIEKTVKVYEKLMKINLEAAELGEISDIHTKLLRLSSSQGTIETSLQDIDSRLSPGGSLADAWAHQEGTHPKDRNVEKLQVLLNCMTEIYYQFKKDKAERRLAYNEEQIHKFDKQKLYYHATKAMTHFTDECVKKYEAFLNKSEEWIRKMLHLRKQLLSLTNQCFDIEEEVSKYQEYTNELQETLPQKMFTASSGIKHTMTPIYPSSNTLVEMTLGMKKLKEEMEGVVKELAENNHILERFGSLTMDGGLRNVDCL

B1: FLAG-γ134.5 N159 (other)
chain: MARRRRHRGPRRPRPPGPTGAVPTAQSQVTSTPNSEPAVRSAPAAAPPPPPASGPPPSCSLLLRQWLHVPESASDDDDDDDWPDSPPPEPAPEARPTAAAPRPRSPPPGAGPGGGANPSHPPSRPFRLPPRLALRLRVTAEHLARLRLRRAGGEGAPE
notes: Carboxyl-terminal domain deleted; the exact last residue (158 or 159) is uncertain
B2: FLAG-γ134.5 Δ72 (other)
chain: MARRRRHRGPRRPRPPGPTGAVPTAQSQVASDDDDDDDWPDSPPPEPAPEARPTAAAPRPRSPPPGAGPGGGANPSHPPSRPFRLPPRLALRLRVTAEHLARLRLRRAGGEGAPEPPATPATPATPATPATPATPATPATPATPATPARVRFSPHVRVRHLVVWASAARLARRGSWARERADRARFRRRVAEAEAVIGPCLGPEARARALARGAGPANSV
notes: Deletion 'encompassing amino acids 30 to 72'; the printed limits overlap with the neighbouring deletions, so the exact junction is uncertain
B3: FLAG-γ134.5 Δ30 (other)
chain: STPNSEPAVRSAPAAAPPPPPASGPPPSCSLLLRQWLHVPESASDDDDDDDWPDSPPPEPAPEARPTAAAPRPRSPPPGAGPGGGANPSHPPSRPFRLPPRLALRLRVTAEHLARLRLRRAGGEGAPEPPATPATPATPATPATPATPATPATPATPATPARVRFSPHVRVRHLVVWASAARLARRGSWARERADRARFRRRVAEAEAVIGPCLGPEARARALARGAGPANSV
notes: Deletion 'encompassing amino acids 1 to 30'

For this test, the target named is T1, TBK1 (as used in Example 6; construct …). The test can be described thus: co-immunoprecipitation from transfected 293T cells.
As for B1, the binding result is recorded as “binds”.

B2: the binding result is “binds”. As to B3, the binding result is on record as “binds”.

The values above are taken from patent US8765444 (BOARD OF TRUSTEES OF THE UNIVERSITY OF ILLINOIS, dated 2014).
